Results: IntAct's records for PubMed 26822058

B1: MARVEL domain-containing protein 2 (Homo sapiens), Q8N4S9 (parent)
chain: MSNDGRSRNRDRRYDEVPSDLPYQDTTIRTHPTLHDSERAVSADPLPPPPLPLQPPFGPDFYSSDTEEPAIAPDLKPVRRFVPDSWKNFFRGKKKDPEWDKPVSDIRYISDGVECSPPASPARPNHRSPLNSCKDPYGGSEGTFSSRKEADAVFPRDPYGSLDRHTQTVRTYSEKVEEYNLRYSYMKSWAGLLRILGVVELLLGAGVFACVTAYIHKDSEWYNLFGYSQPYGMGGVGGLGSMYGGYYYTGPKTPFVLVVAGLAWITTIIILVLGMSMYYRTILLDSNWWPLTEFGINVALFILYMAAAIVYVNDTNRGGLCYYPLFNTPVNAVFCRVEGGQIAAMIFLFVTMIVYLISALVCLKLWRHEAARRHREYMEQQEINEPSLSSKRKMCEMATSGDRQRDSEVNFKELRTAKMKPELLSGHIPPGHIPKPIVMPDYVAKYPVIQTDDERERYKAVFQDQFSEYKELSAEVQAVLRKFDELDAVMSRLPHHSESRQEHERISRIHEEFKKKKNDPTFLEKKERCDYLKNKLSHIKQRIQEYDKVMNWDVQGYS

Variants of: B1
Conditions: with plmn_human PLG

Variant	effect of a mutation on the interaction
K252A	decreasing interaction strength
K217A;K252A	disrupting interaction strength
K217A	decreasing interaction strength
